In patent publication US8062638 (Chugai, dated 2011):
Substitutions are numbered along the chain they refer to.

B1: chimeric ATR-5 antibody (H chain chimeric/L chain chimeric) (antibody, V domains shown)
VH: EVQLQQSGTNLVRPGALVKLSCKGSGFNIKDYYMHWVKQRPEQGLEWIGGNDPANGHSMYDPKFQGKASITADTSSNTAYLQLSSLTSEDTAVYFCARDSGYAMDYWGQGTSVTVSS
VL: DIKMTQSPSSMYASLGERVTITCKASQDIKSFLSWYQQKPWKSPKTLIYYATSLADGVPSRFSGSGSGQDYSLTINNLESDDTATYYCLQHGESPYTFGGGTKLEIK
notes: Mouse ATR-5 V regions on human C regions; Both IgG1-type (N5KG1(V)) and IgG4-type (N5KG4P) vectors were made; also called ch-ch; chimeric antibody
B2: humanized H chain version b / chimeric L chain antibody (antibody, V domains shown)
VH: QVQLLESGAVLARPGTSVKISCKASGFNIKDYYMHWVKQRPGQGLEWIGGNDPANGHSMYDPKFQGRVTITADTSTNTAYMELSSLRSEDTAIYYCARDSGYAMDYWGQGTLVTVSS
VL: B1 VL
notes: Expressed from N5KG4P (human IgG4-type)
B3: humanized H chain version c / chimeric L chain antibody (antibody, V domains shown)
VH: QVQLLESGAVLARPGTSVKISCKASGFNIKDYYMHWVKQRPGQGLEWIGGNDPANGHSMYDPKFQGRVTMLVDTSKNQFSLRLSSVTAADTAVYYCARDSGYAMDYWGQGTLVTVSS
VL: B1 VL
notes: as for B2
B4: H chain humanized version b / L chain humanized version b antibody (antibody, V domains shown)
VH: B2 VH
VL: DIQMTQSPSSLSASVGDRVTITCKASQDIKSFLSWYQQKPGKAPKLLIYYATSLADGVPSRFSGSGSGTDYTLTISSLQPEDFATYYCLQHGESPYTFGGGTKVEIK
notes: also called b-b; humanized antibody version b-b
B5: humanized H chain version a / chimeric L chain antibody (antibody, V domains shown)
VH: QVQLLESGAVLARPGTSVKISCKASGFNIKDYYMHWVKQRPGQGLEWIGGNDPANGHSMYDPKFQGRAKLTAATSASIAYLEFSSLTNEDSAVYYCARDSGYAMDYWGQGTLVTVSS
VL: B1 VL
notes: as for B2
B6: humanized H chain version b / humanized L chain version b2 antibody (antibody, V domains shown)
VH: B2 VH
VL: B4 VL with G41E, L46S
notes: Expressed from N5KG4P (human IgG4-type); also called b-b2
B7: humanized H chain version d / humanized L chain version b antibody (antibody, V domains shown)
VH: B2 VH with T74E, N77S, T91S, I93V, Y95F
VL: B4 VL
notes: Expressed from N5KG4P (human IgG4-type); also called d-b
B8: humanized H chain version b3 / humanized L chain version b antibody (antibody, V domains shown)
VH: B2 VH with K38R, R40A
VL: B4 VL
notes: Expressed from N5KG4P (human IgG4-type); also called b3-b
B9: humanized H chain version b / humanized L chain version a antibody (antibody, V domains shown)
VH: B2 VH
VL: B4 VL with Y71F
notes: Expressed from N5KG4P (human IgG4-type); also called b-a
B10: humanized H chain version g / humanized L chain version b antibody (antibody, V domains shown)
VH: B2 VH with R67K, V68A, I70L, T74E, T76S, N77S, E82Q, T91S, I93V, Y95S
VL: B4 VL
notes: Expressed from N5KG4P (human IgG4-type); also called g-b
B11: humanized H chain version d3 / humanized L chain version b antibody (antibody, V domains shown)
VH: B2 VH with K38R, R40A, T74E, N77S, T91S, I93V, Y95F
VL: B4 VL
notes: Expressed from N5KG4P (human IgG4-type); also called d3-b
B12: humanized H chain version i / chimeric L chain antibody (antibody, V domains shown)
VH: B2 VH with N77S, A79V, Y80F, I93V
VL: B1 VL
notes: as for B2
B13: humanized H chain version i / humanized L chain version b1 antibody (antibody, V domains shown)
VH: B2 VH with N77S, A79V, Y80F, I93V
VL: B4 VL with Y36F, A43S, L46T
notes: Expressed from N5KG4P (human IgG4-type); also called i-b1
B14: humanized H chain version j / chimeric L chain antibody (antibody, V domains shown)
VH: B2 VH with I70F, T76A, S84R, E89A, I93V
VL: B1 VL
notes: as for B2
B15: H chain humanized version i / L chain humanized version b2 antibody (antibody, V domains shown)
VH: B2 VH with N77S, A79V, Y80F, I93V
VL: B4 VL with G41E, L46S
notes: also called i-b2; humanized anti-human TF antibody version i-b2
B16: humanized H chain version b / humanized L chain version c antibody (antibody, V domains shown)
VH: B2 VH
VL: B4 VL with F83I
notes: Human IgG4-type (N5KG4P series); also called b-c
B17: H chain humanized version i / L chain humanized version b antibody (antibody, V domains shown)
VH: B2 VH with N77S, A79V, Y80F, I93V
VL: B4 VL
notes: also called humanized antibody version i-b
B18: humanized H chain version d / chimeric L chain antibody (antibody, V domains shown)
VH: B2 VH with T74E, N77S, T91S, I93V, Y95F
VL: B1 VL
notes: as for B2
B19: humanized H chain version e / chimeric L chain antibody (antibody, V domains shown)
VH: B2 VH with T69S, T74E, N77K, T78I, S84N, I93V, Y95F
VL: B1 VL
notes: as for B2
B20: humanized H chain version j / humanized L chain version b antibody (antibody, V domains shown)
VH: B2 VH with I70F, T76A, S84R, E89A, I93V
VL: B4 VL
notes: Expressed from N5KG4P (human IgG4-type); also called j-b
B21: chimeric H chain / humanized L chain version b antibody (antibody, V domains shown)
VH: B1 VH
VL: B4 VL
notes: Expressed from N5KG4P (human IgG4-type); also called ch-b
B22: humanized H chain version a / humanized L chain version a antibody (antibody, V domains shown)
VH: B5 VH
VL: B4 VL with Y71F
notes: as for B2
B23: chimeric H chain / humanized L chain version c antibody (antibody, V domains shown)
VH: B1 VH
VL: B4 VL with F83I
notes: as for B2
B24: chimeric H chain / humanized L chain version b2 antibody (antibody, V domains shown)
VH: B1 VH
VL: B4 VL with G41E, L46S
notes: Expressed from N5KG4P (human IgG4-type); also called ch-b2
B25: chimeric H chain / humanized L chain version b1 antibody (antibody, V domains shown)
VH: B1 VH
VL: B4 VL with Y36F, A43S, L46T
notes: Expressed from N5KG4P (human IgG4-type); also called ch-b1
B26: chimeric H chain / humanized L chain version a antibody (antibody, V domains shown)
VH: B1 VH
VL: B4 VL with Y71F
notes: as for B2

These binders were tested against T1, human tissue factor (TF) on cells (human, UniProt P13726 33-295) (assay: cell ELISA on fixed J82 cells expressing TF; chimeric antibody is the reference).
T1 construct: also called human TF; the antigen

Row | Binder | binding result
1 | B1 | binds

What follows are binders tested against T1, human tissue factor (TF) on cells (assay: cell ELISA on fixed J82 cells expressing TF).

Row | Binder | binding result
2 | B2 | binds
3 | B3 | binds
4 | B4 | binds
5 | B5 | binds
6 | B6 | binds
7 | B7 | binds
8 | B8 | binds
9 | B9 | binds
10 | B10 | binds
11 | B11 | binds
12 | B12 | binds
13 | B13 | binds
14 | B14 | binds
15 | B15 | binds
16 | B16 | binds
17 | B17 | binds
18 | B18 | binds
19 | B19 | binds
20 | B20 | binds
21 | B21 | binds
22 | B22 | binds
23 | B23 | binds
24 | B24 | binds
25 | B25 | binds
26 | B26 | binds
